Biological target: the molecule itself
Assay: AUC; sedimentation velocity, 42,000 rpm, 20°C, absorbance at 280 nm, analysed with SEDFIT

Protein	stoichiometry N
TON_1525 ('eighth note' fold regulator, EnfR), wild-type (natural protein, Thermococcus onnurineus NA1, UniProt B6YTS4 1-146, looked up, Synthetic gene in pET24a(+) with an in-frame non-cleavable C-terminal His6-tag; also called WT; wild-type EnfR; source: E. coli Rosetta (DE3), purified (75°C heat step, Ni-NTA, Superdex 75); not shown: His6, C-terminal, kept) MGSKSFLTEQQIKILRLRARGLKQSEIAELLGTSRANISILERRALEKIEKARNTITIWEQINSKISVEVRKGEDIFTVPDKLFKKADELQIKVPYSTAEIIAFLVEHAPISDRIAKRDFTLFLDARDRLRISECLLEEFDEIGKQ	2
EnfR R44A mutant (natural protein, Thermococcus onnurineus NA1, UniProt B6YTS4 1-146, looked up, TON_1525 (EnfR) of Thermococcus onnurineus NA1, residues 1-146, with R44A; source: E. coli, purified by the same procedure as the wild-type; not shown: His6, C-terminal, kept) MGSKSFLTEQQIKILRLRARGLKQSEIAELLGTSRANISILERAALEKIEKARNTITIWEQINSKISVEVRKGEDIFTVPDKLFKKADELQIKVPYSTAEIIAFLVEHAPISDRIAKRDFTLFLDARDRLRISECLLEEFDEIGKQ	2
EnfR R43A mutant (natural protein, Thermococcus onnurineus NA1, UniProt B6YTS4 1-146, looked up, TON_1525 (EnfR) of Thermococcus onnurineus NA1, residues 1-146, with R43A; source: E. coli, purified by the same procedure as the wild-type; not shown: His6, C-terminal, kept) MGSKSFLTEQQIKILRLRARGLKQSEIAELLGTSRANISILEARALEKIEKARNTITIWEQINSKISVEVRKGEDIFTVPDKLFKKADELQIKVPYSTAEIIAFLVEHAPISDRIAKRDFTLFLDARDRLRISECLLEEFDEIGKQ	2
EnfR R35A mutant (natural protein, Thermococcus onnurineus NA1, UniProt B6YTS4 1-146, looked up, TON_1525 (EnfR) of Thermococcus onnurineus NA1, residues 1-146, with R35A; source: E. coli, purified by the same procedure as the wild-type; not shown: His6, C-terminal, kept) MGSKSFLTEQQIKILRLRARGLKQSEIAELLGTSAANISILERRALEKIEKARNTITIWEQINSKISVEVRKGEDIFTVPDKLFKKADELQIKVPYSTAEIIAFLVEHAPISDRIAKRDFTLFLDARDRLRISECLLEEFDEIGKQ	2
EnfR mutant with N-terminal six residues deleted (ΔN^1–6) (domain or fragment, Thermococcus onnurineus NA1, UniProt B6YTS4 7-146, looked up, TON_1525 (EnfR) of Thermococcus onnurineus NA1, residues 1-146 without the N-terminal six residues (N-6 region, residues 1-6); The limits 7-146 follow from the printed deletion of residues 1-6 of the 1-146 construct; also called mutant with the N-6 region deleted; source: E. coli, purified by the same procedure as the wild-type; not shown: His6, C-terminal, kept) LTEQQIKILRLRARGLKQSEIAELLGTSRANISILERRALEKIEKARNTITIWEQINSKISVEVRKGEDIFTVPDKLFKKADELQIKVPYSTAEIIAFLVEHAPISDRIAKRDFTLFLDARDRLRISECLLEEFDEIGKQ	2

Biological target: the molecule itself
Assay: crystal structure; microbatch under oil at 22°C; space group P4(3)2(1)2, two monomers in the asymmetric unit

Protein	binding result
EnfR (TON_1525) T55I mutant (natural protein, Thermococcus onnurineus NA1, UniProt B6YTS4 1-146, looked up, TON_1525 (EnfR) of Thermococcus onnurineus NA1, residues 1-146, with T55I; The T55I change first arose in an adaptive laboratory evolution (strain 156T / MC11); here made by site-directed mutagenesis; source: E. coli Rosetta (DE3), purified (75°C heat step, Ni-NTA, Superdex 75); not shown: His6, C-terminal, kept) MGSKSFLTEQQIKILRLRARGLKQSEIAELLGTSRANISILERRALEKIEKARNIITIWEQINSKISVEVRKGEDIFTVPDKLFKKADELQIKVPYSTAEIIAFLVEHAPISDRIAKRDFTLFLDARDRLRISECLLEEFDEIGKQ	binds

— paper PMC10570040 (Nucleic Acids Research, 2023)
